Experimental data reported in patent publication US20080220446A1, “Method for Detecting and/or Removing Protein and/or Peptide Comprising a Cross-Beta Structure From an Aqueous Solution Comprising a Protein” (priority 2005, published 2008).

Legend:
factor XII = target: T1, factor XII (Homo sapiens, UniProt P00748); assay: ELISA, binding of β2GPI to immobilized factor XII
T1 construct: purified human factor XII from plasma (Calbiochem); purchased Calbiochem; host or cells: human plasma
T1 sequence (P00748 20-615): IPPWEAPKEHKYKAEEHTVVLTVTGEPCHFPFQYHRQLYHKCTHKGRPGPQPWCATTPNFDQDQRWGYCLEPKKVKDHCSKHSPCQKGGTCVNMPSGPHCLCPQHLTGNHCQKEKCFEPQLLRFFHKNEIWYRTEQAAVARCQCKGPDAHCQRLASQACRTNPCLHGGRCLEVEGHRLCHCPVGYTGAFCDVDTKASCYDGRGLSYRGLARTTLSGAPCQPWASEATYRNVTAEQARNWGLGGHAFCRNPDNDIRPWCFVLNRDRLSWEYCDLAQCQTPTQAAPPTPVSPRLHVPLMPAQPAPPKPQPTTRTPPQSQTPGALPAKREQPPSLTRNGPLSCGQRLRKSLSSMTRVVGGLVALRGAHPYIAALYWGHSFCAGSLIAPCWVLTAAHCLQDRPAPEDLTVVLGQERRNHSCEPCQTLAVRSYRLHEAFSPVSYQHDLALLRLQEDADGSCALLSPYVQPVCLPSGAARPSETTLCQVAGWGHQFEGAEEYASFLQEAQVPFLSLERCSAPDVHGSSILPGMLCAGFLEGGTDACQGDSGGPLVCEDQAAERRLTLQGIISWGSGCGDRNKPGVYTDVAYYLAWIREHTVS
Description: Binding of purified human factor XII from plasma (Calbiochem) or of purified recombinant human tPA to β2GPI purified from human plasma, or to recombinant human β2GPI was tested in an ELISA. Ten μg of factor XII or tPA in PBS was coated onto wells of a Costar 2595 ELISA plate (Cambridge, USA) and incubated with concentration series of the two β2GPI preparations. Binding of β2GPI was assessed with monoclonal antibody 2B2^22.

[1] = Thioflavin T fluorescence of protein solutions; assay type: physicochemical; conditions: initial, compared with native β2GPI purified from plasma
Description: Fluorescence of ThT—protein/peptide adducts was measured as follows. […] Fluorescence was measured at 485 nm upon excitation at 435 nm. Background signals from buffer, buffer with ThT and protein/peptide solution without ThT were subtracted from corresponding measurements with protein solution incubated with ThT. Regularly, fluorescence of Aβ was used as a positive control, and fluorescence of FP10, a non-amyloid fibrin fragment^16, was used as a negative control. Fluorescence was measured in triplicate on a Hitachi F-4500 fluorescence spectrophotometer (Ltd., Tokyo, Japan).
Formulated protein therapeutics were obtained from the local hospital pharmacy and were used as supplied by the manufacturers. […] Lyophilized therapeutics were dissolved according to the manufacturers recommendations. GH, zinc-insulin, Cealb and gelatin were stored at −20, 4, room temperature, 37 and 65° C. Other protein therapeutics were only kept at 4° C., and assayed for the presence of cross-β structure at shown time points. Enhancement in fluorescence of ThT and Congo red was measured with all formulated protein therapeutics. […]
ThT fluorescence of β2GPI was measured as follows. […] In the ThT fluorescence assay, fluorescence of β2GPI in buffer, of CL or DXS500k in buffer, of buffer and ThT alone, and of β2GPI-CL adducts and β2GPI-DXS500k adducts, with or without ThT, was recorded as described above (section ThT fluorescence). In addition, TEM images were recorded with CL, β2GPI from human plasma, with or without CL, and with recombinant β2GPI, as described^5.
To prepare structurally altered ovalbumin (OVA) with amyloid cross-β structures, purified OVA (Sigma, A-7641, lot 071k7094) was heated to 85° C. […] Native OVA (nOVA) and heat-denatured OVA (dOVA) were tested in the ThT fluorescence assay and in the Plg-activation assay. In the fluorescence assay and in the Plg-activation assay, 25 and 100 μg ml^−1 nOVA and dOVA were tested, respectively. […]
MSA (#126674, Calbiochem) was dissolved in 8 M urea, 100 mM Tris-HCl pH 8.2, at 10 mg ml^−1 final concentration. […] The presence of aggregates or fibrils was analyzed using TEM. […]

binding to factor XII (factor XII): bind
B1: recombinant β2GPI: recombinant human β2-glycoprotein I made using insect cells (protein)
chain: GRTCPKPDDLPFSTVVPLKTFYEPGEEITYSCKPGYVSRGGMRKFICPLTGLWPINTLKCTPRVCPFAGILENGAVRYTTFEYPNTISFSCNTGFYLNGADSAKCTEEGKWSPELPVCAPIICPPPSIPTFATLRVYKPSAGNNSLYRDTAVFECLPQHAMFGNDTITCTTHGNWTKLPECREVKCPFPSRPDNGFVNYPAKPTLYYKDKATFGCHDGYSLDGPEEIECTKLGNWSAMPSCKASCKVPVKKATVVYQGERVKIQEKFKNGMLHGDKVSFFCKNKEKKCSYTEDAQCIDGTIEVPKCFKEHSSLAFWKTDASDVKPC
ThT fluorescence signal [1]: higher ThT fluorescence signal than native β2GPI purified from plasma
